Reference: the supplement of paper PMC11246515
± gives the standard deviation of the averaged measurements.

Assay: total protein half-life in vivo (active degradation + dilution); higher = more stable protein
[1] = E. coli NCM3722 delta-clpP delta-lon delta-hslV, growth: N-lim chemostat, doubling time 6 h
[2] = E. coli NCM3722 delta-clpP, growth: N-lim chemostat, doubling time 6 h
[3] = E. coli NCM3722 delta-hslV, growth: N-lim chemostat, doubling time 6 h
[4] = E. coli NCM3722 delta-lon, growth: N-lim chemostat, doubling time 6 h
[5] = E. coli NCM3722 delta-smpB, growth: N-lim chemostat, doubling time 6 h
[6] = wild type E. coli NCM3722, growth: C-lim chemostat, doubling time 3 h
[7] = wild type E. coli NCM3722, growth: C-lim chemostat, doubling time 12 h
[8] = wild type E. coli NCM3722, growth: N-lim chemostat, doubling time 6 h
[9] = wild type E. coli NCM3722, growth: N-lim chemostat, doubling time 12 h
[10] = wild type E. coli NCM3722, growth: P-lim chemostat, doubling time 6 h
[11] = wild type E. coli NCM3722, growth: P-lim chemostat, doubling time 12 h
[12] = wild type E. coli NCM3722, growth: C-lim chemostat, doubling time 6 h

Sequence	total protein half-life in vivo [1]	total protein half-life in vivo [2]	total protein half-life in vivo [3]	total protein half-life in vivo [4]	total protein half-life in vivo [5]	total protein half-life in vivo [6]	total protein half-life in vivo [7]	total protein half-life in vivo [8]	total protein half-life in vivo [9]	total protein half-life in vivo [10]	total protein half-life in vivo [11]	total protein half-life in vivo [12]
MLIRVEIPIDAPGIDALLRRSFESDAEAKLVHDLREDGFLTLGLVATDDEGQVIGYVAFSPVDVQGEDLQWVGMAPLAVDEKYRGQGLARQLVYEGLDSLNEFGYAAVVTLGDPALYSRFGFELAAHHDLRCRWPGTESAFQVHRLADDALNGVTGLVEYHEHFNRF	5.29 ± 0.2 h	4.46 ± 0.13 h	4.22 ± 0.15 h	4.44 ± 0.37 h	3.73 ± 0.17 h	3.02 ± 0.3 h	9.91 ± 0.78 h	4.51 ± 0.72 h	7.82 ± 0.18 h	5.72 ± 0.43 h	11.7 ± 0.65 h	–
MLKFILRRCLEAIPTLFILITISFFMMRLAPGSPFTGERTLPPEVMANIEAKYHLNDPIMTQYFSYLKQLAHGDFGPSFKYKDYSVNDLVASSFPVSAKLGAAAFFLAVILGVSAGVIAALKQNTKWDYTVMGLAMTGVVIPSFVVAPLLVMIFAIILHWLPGGGWNGGALKFMILPMVALSLAYIASIARITRGSMIEVLHSNFIRTARAKGLPMRRIILRHALKPALLPVLSYMGPAFVGIITGSMVIETIYGLPGIGQLFVNGALNRDYSLVLSLTILVGALTILFNAIVDVLYAVIDPKIRY [P0AFH2]	6.19 ± 0.36 h	6.06 ± 0.43 h	6.31 ± 0.27 h	4.86 ± 1.2 h	5.88 ± 0.32 h	2.81 ± 0.28 h	13.4 ± 3.6 h	4.92 ± 1.4 h	13.5 h	5.69 ± 1.4 h	9.81 ± 1.4 h	5.75 ± 0.39 h
MLKFIQNNREITALLAVVLLFVLPGFLDRQYLSVQTLTMVYSSAQILILLAMGATLVMLTRNIDVSVGSITGMCAVLLGMLLNAGYSLPVACVATLLLGLLAGFFNGVLVAWLKIPAIVATLGTLGLYRGIMLLWTGGKWIEGLPAELKQLSAPLLLGVSAIGWLTIILVAFMAWLLAKTAFGRSFYATGDNLQGARQLGVRTEAIRIVAFSLNGCMAALAGIVFASQIGFIPNQTGTGLEMKAIAACVLGGISLLGGSGAIIGAVLGAWFLTQIDSVLVLLRIPAWWNDFIAGLVLLAVLVFDGRLRCALERNLRRQKYARFMTPPPSVKPASSGKKREAA	–	–	–	–	–	3.42 h	7.51 ± 1.3 h	–	–	–	–	5.06 ± 1.6 h
MLKIIRAGMYTTVQDGGRHGFRQSGISHCGALDMPALRIANLLVGNDANAPALEITLGQLTVEFETDGWFALTGAGCEARLDDNAVWTGWRLPMKAGQRLTLKRPQHGMRSYLAVAGGIDVPPVMGSCSTDLKVGIGGLEGRLLKDGDRLPIGKSKRDSMEAQGVKQLLWGNRIRALPGPEYHEFDRASQDAFWRSPWQLSSQSNRMGYRLQGQILKRTTDRELLSHGLLPGVVQVPHNGQPIVLMNDAQTTGGYPRIACIIEADMYHLAQIPLGQPIHFVQCSLEEALKARQDQQRYFEQLAWRLHNEN	5.37 ± 0.055 h	5.3 ± 0.29 h	5.076 ± 0.012 h	5.07 ± 0.35 h	4.88 ± 0.36 h	3.12 ± 0.1 h	10.1 ± 0.82 h	5.25 ± 0.34 h	8.94 ± 0.26 h	5.79 ± 0.12 h	11.26 ± 0.079 h	5.73 ± 0.14 h
MLKLFSAFRKNKIWDFNGGIHPPEMKTQSNGTPLRQVPLAQRFVIPLKQHIGAEGELCVSVGDKVLRGQPLTRGRGKMLPVHAPTSGTVTAIAPHSTAHPSALAELSVIIDADGEDCWIPRDGWADYRTRSREELIERIHQFGVAGLGGAGFPTGVKLQGGGDKIETLIINAAECEPYITADDRLMQDCAAQVVEGIRILAHILQPREILIGIEDNKPQAISMLRAVLADSNDISLRVIPTKYPSGGAKQLTYILTGKQVPHGGRSSDIGVLMQNVGTAYAVKRAVIDGEPITERVVTLTGEAIARPGNVWARLGTPVRHLLNDAGFCPSADQMVIMGGPLMGFTLPWLDVPVVKITNCLLAPSANELGEPQEEQSCIRCSACADACPADLLPQQLYWFSKGQQHDKATTHNIADCIECGACAWVCPSNIPLVQYFRQEKAEIAAIRQEEKRAAEAKARFEARQARLEREKAARLERHKSAAVQPAAKDKDAIAAALARVKEKQAQATQPIVIKAGERPDNSAIIAAREARKAQARAKQAELQQTNDAATVADPRKTAVEAAIARAKARKLEQQQANAEPEQQVDPRKAAVEAAIARAKARKLEQQQANAEPEEQVDPRKAAVEAAIARAKARKLEQQQANAEPEQQVDPRKAAVEAAIARAKARKREQQPANAEPEEQVDPRKAAVEAAIARAKARKLEQQQANAVPEEQVDPRKAAVAAAIARAQAKKAAQQKVVNED	5.65 ± 0.73 h	2.67 ± 0.51 h	–	> 8 h	1.01 ± 0.033 h	1.3 ± 0.13 h	1.76 h	1.16 h	–	1.8 ± 0.14 h	2.72 ± 0.58 h	1.31 ± 0.069 h
MLKQVEIFTDGSCLGNPGPGGYGAILRYRGREKTFSAGYTRTTNNRMELMAAIVALEALKEHCEVILSTDSQYVRQGITQWIHNWKKRGWKTADKKPVKNVDLWQRLDAALGQHQIKWEWVKGHAGHPENERCDELARAAAMNPTLEDTGYQVEV [P0A7Y4]	–	6.46 ± 0.89 h	–	–	–	–	9.26 h	4.7 ± 0.96 h	–	6.5 ± 0.82 h	–	5.92 ± 0.082 h
MLKRCLSPLTLVNQVALIVLLSTAIGLAGMAVSGWLVQGVQGSAHAINKAGSLRMQSYRLLAAVPLSEKDKPLIKEMEQTAFSAELTRAAERDGQLAQLQGLQDYWRNELIPALMRAQNRETVSADVSQFVAGLDQLVSGFDRTTEMRIETVVLVHRVMAVFMALLLVFTIIWLRARLLQPWRQLLAMASAVSHRDFTQRANISGRNEMAMLGTALNNMSAELAESYAVLEQRVQEKTAGLEHKNQILSFLWQANRRLHSRAPLCERLSPVLNGLQNLTLLRDIELRVYDTDDEENHQEFTCQPDMTCDDKGCQLCPRGVLPVGDRGTTLKWRLADSHTQYGILLATLPQGRHLSHDQQQLVDTLVEQLTATLALDRHQERQQQLIVMEERATIARELHDSIAQSLSCMKMQVSCLQMQGDALPESSRELLSQIRNELNASWAQLRELLTTFRLQLTEPGLRPALEASCEEYSAKFGFPVKLDYQLPPRLVPSHQAIHLLQIAREALSNALKHSQASEVVVTVAQNDNQVKLTVQDNGCGVPENAIRSNHYGMIIMRDRAQSLRGDCRVRRRESGGTEVVVTFIPEKTFTDVQGDTHE [P0AFA2]	6.01 ± 0.078 h	6.25 ± 0.066 h	–	5.32 ± 0.25 h	5.44 ± 0.34 h	3.11 ± 0.058 h	10.9 ± 0.31 h	5.65 ± 0.069 h	11.1 ± 0.78 h	6.05 ± 0.12 h	11 ± 1.5 h	5.44 ± 0.39 h
